According to publication PMC10397247:

Columns and labels:
4H2611-AA = biological target: T1, 4H2611-AA; test: two-hybrid library CCmax; details: mean of both orientations;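 note: natural log of median RNA to DNA barcode read ratio; higher means stronger binding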
T1 chain: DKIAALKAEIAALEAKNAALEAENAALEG

4H1874-AA = biological target: T2, 4H1874-AA; test: two-hybrid library CCmax; details: mean of both orientations;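 note: natural log of median RNA to DNA barcode read ratio; higher means stronger binding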
T2 chain: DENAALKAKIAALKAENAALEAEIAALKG

4H3056-AA = biological target: T3, 4H3056-AA; test: two-hybrid library CCmax; details: mean of both orientations;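 note: natural log of median RNA to DNA barcode read ratio; higher means stronger binding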
T3 chain: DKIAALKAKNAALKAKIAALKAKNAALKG

4H2620-AA = biological target: T4, 4H2620-AA; test: two-hybrid library CCmax; details: mean of both orientations;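 note: natural log of median RNA to DNA barcode read ratio; higher means stronger binding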
T4 chain: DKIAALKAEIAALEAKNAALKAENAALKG

4H384-AA = biological target: T5, 4H384-AA; test: two-hybrid library CCmax; details: mean of both orientations;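 note: natural log of median RNA to DNA barcode read ratio; higher means stronger binding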
T5 chain: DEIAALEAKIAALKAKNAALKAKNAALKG

4H1388-AA = biological target: T6, 4H1388-AA; test: two-hybrid library CCmax;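 note: natural log of median RNA to DNA barcode read ratio; higher means stronger binding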
T6 chain: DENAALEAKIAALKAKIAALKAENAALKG

4H3697-AA = biological target: T7, 4H3697-AA; test: two-hybrid library CCmax; details: mean of both orientations
T7 chain: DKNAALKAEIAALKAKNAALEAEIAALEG

4H982-AA = biological target: T8, 4H982-AA; test: two-hybrid library CCmax; details: mean of both orientations
T8 chain: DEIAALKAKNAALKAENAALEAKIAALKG

4H1401-AA = biological target: T9, 4H1401-AA; test: two-hybrid library CCmax; details: mean of both orientations
T9 chain: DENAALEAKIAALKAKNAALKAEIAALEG

4H1594-AA = biological target: T10, 4H1594-AA; test: two-hybrid library CCmax; details: mean of both orientations
T10 chain: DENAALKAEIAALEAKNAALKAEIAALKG

4H2553-AA = biological target: T11, 4H2553-AA; test: two-hybrid library CCmax; details: mean of both orientations
T11 chain: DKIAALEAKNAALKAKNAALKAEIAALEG

4H32-AA = biological target: T12, 4H32-AA; test: two-hybrid library CCmax; details: mean of both orientations
T12 chain: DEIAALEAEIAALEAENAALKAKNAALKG

4H3718-AA = biological target: T13, 4H3718-AA; test: two-hybrid library CCmax; details: mean of both orientations
T13 chain: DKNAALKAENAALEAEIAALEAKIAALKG

4H3133-AA = biological target: T14, 4H3133-AA; test: two-hybrid library CCmax; details: mean of both orientations
T14 chain: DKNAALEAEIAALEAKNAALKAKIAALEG

4H3865-AA = biological target: T15, 4H3865-AA; test: two-hybrid library CCmax; details: mean of both orientations
T15 chain: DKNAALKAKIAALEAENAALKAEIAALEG

4H3378-AA = biological target: T16, 4H3378-AA; test: two-hybrid library CCmax; details: mean of both orientations
T16 chain: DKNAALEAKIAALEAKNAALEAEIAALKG

4H2198-AA = biological target: T17, 4H2198-AA; test: two-hybrid library CCmax; details: mean of both orientations
T17 chain: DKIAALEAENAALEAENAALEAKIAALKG

4H3588-AA = biological target: T18, 4H3588-AA; test: two-hybrid library CCmax; details: mean of both orientations
T18 chain: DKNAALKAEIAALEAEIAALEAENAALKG

4H3606-AA = biological target: T19, 4H3606-AA; test: two-hybrid library CCmax; details: mean of both orientations
T19 chain: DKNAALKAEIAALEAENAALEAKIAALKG

4H697-AA = biological target: T20, 4H697-AA; test: two-hybrid library CCmax; details: mean of both orientations
T20 chain: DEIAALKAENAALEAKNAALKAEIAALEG

4H3631-AA = biological target: T21, 4H3631-AA; test: two-hybrid library CCmax; details: mean of both orientations
T21 chain: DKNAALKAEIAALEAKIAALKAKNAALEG

4H340-AA = biological target: T22, 4H340-AA; test: two-hybrid library CCmax; details: mean of both orientations
T22 chain: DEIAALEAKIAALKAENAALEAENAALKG

4H3162-AA = biological target: T23, 4H3162-AA; test: two-hybrid library CCmax; details: mean of both orientations
T23 chain: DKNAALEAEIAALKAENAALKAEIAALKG

4H3413-AA = biological target: T24, 4H3413-AA; test: two-hybrid library CCmax; details: mean of both orientations
T24 chain: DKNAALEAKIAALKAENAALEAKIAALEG

4H1513-AA = biological target: T25, 4H1513-AA; test: two-hybrid library CCmax; details: mean of both orientations
T25 chain: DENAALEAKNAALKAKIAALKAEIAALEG

4H2907-AA = biological target: T26, 4H2907-AA; test: two-hybrid library CCmax; details: mean of both orientations
T26 chain: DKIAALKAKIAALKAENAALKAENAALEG

4H1845-AA = biological target: T27, 4H1845-AA; test: two-hybrid library CCmax; details: mean of both orientations
T27 chain: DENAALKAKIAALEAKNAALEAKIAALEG

4H1629-AA = biological target: T28, 4H1629-AA; test: two-hybrid library CCmax; details: mean of both orientations
T28 chain: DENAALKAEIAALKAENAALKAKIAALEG

4H2648-AA = biological target: T29, 4H2648-AA; test: two-hybrid library CCmax; details: mean of both orientations
T29 chain: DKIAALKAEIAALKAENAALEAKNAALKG

4H3907-bA = biological target: T30, 4H3907-bA; test: two-hybrid library CCNG1
T30 chain: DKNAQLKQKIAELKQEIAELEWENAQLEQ

4H3601-bA = biological target: T31, 4H3601-bA; test: two-hybrid library CCNG1
T31 chain: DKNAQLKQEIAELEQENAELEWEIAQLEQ

P4A-bH = biological target: T32, P4A-bH; test: two-hybrid library CCNG1
T32 chain: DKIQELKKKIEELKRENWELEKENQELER

4H3592-bA = biological target: T33, 4H3592-bA; test: two-hybrid library CCNG1
T33 chain: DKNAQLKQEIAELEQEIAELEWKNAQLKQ

4H4038-bA = biological target: T34, 4H4038-bA; test: two-hybrid library CCNG1
T34 chain: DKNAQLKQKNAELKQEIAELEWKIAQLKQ

DENAALEAKIAALKAKIAALKAENAALKG [4H1388-AA]
interaction score (4H2611-AA): -0.829 | interaction score (4H1874-AA): -1.59 | interaction score (4H3056-AA): -1.68 | interaction score (4H2620-AA): -0.0212 | interaction score (4H384-AA): -0.356 | interaction score (4H1388-AA): -0.698 | interaction score (4H3697-AA): -1.77 | interaction score (4H982-AA): -2.08 | interaction score (4H1401-AA): -2 | interaction score (4H1594-AA): -1.66 | interaction score (4H2553-AA): -1.78 | interaction score (4H32-AA): 2.52 | interaction score (4H3718-AA): -0.0337 | interaction score (4H3133-AA): -1.57 | interaction score (4H3865-AA): -1.23 | interaction score (4H3378-AA): -1.68 | interaction score (4H2198-AA): -1.08 | interaction score (4H3588-AA): 2.13 | interaction score (4H3606-AA): 0.583 | interaction score (4H697-AA): -1.54 | interaction score (4H3631-AA): 0.242 | interaction score (4H340-AA): -0.251 | interaction score (4H3162-AA): -1.45 | interaction score (4H3413-AA): -1.7 | interaction score (4H1513-AA): -0.0302 | interaction score (4H2907-AA): -0.775 | interaction score (4H1845-AA): -1.71 | interaction score (4H1629-AA): -1.24 | interaction score (4H2648-AA): -0.194

DKNAQLKQEIAELEQEIAELEWKNAQLKQ [4H3592-bA]
interaction score (4H3907-bA): 0.467 | interaction score (4H3601-bA): -0.03 | interaction score (P4A-bH): 1.36 | interaction score (4H3592-bA): -0.131 | interaction score (4H4038-bA): -0.458
